B1: library; numbered along this chain (parent)
chain: MEVVDPQQLGMFTEGELMSVGMDTFIHRIDSTEVIYQPRRKRAKLIGKYLMGDLLGEGSYGKVKEVLDSETLCRRAVKILKKKKLRRIPNGEANVKKEIQLLRRLRHKNVIQLVDVLYNEEKQKMYMVMEYCVCGMQEMLDSVPEKRFPVCQAHGYFCQLIDGLEYLHSQGIVHKDIKPGNLLLTTGGTLKISDLGVAEALHPFAADDTCRTSQGSPAFQPPEIANGLDTFSGFKVDIWSAGVTLYNITTGLYPFEGDNIYKLFENIGKGSYAIPGDCGPPLSDLLKGMLEYEPAKRFSIRQIRQHSWFRKKHPPAEAPVPIPPSPDTKDRWRSMTVVPYLEDLHGADEDEDLFDIEDDIIYTQDFTVPGQVPEEEASHNGQRRGLPKAVCMNGTEAAQLSTKSRAEGRAPNPARKACSASSKIRRLSACKQQ

In the supplement of paper PMC12338614 one finds STK11 functional score data, which are given here for 7 variants.

± gives the uncertainty stated by the source.

Variants of B1 are the subject of this series. As to the kind of experiment: STK11 functional score (HeLa growth suppression), rescaled enrichment; synonymous median = 1, nonsense median = 0 (normalised score). Particulars: with HeLa; variant type: missense. Put shortly:
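HeLa cells carrying an AAVS1 landing pad received codon-optimised STK11 libraries made by codon randomisation (POPCode), integrated by Bxb1, with three regions each transfected three times. Integrants that were BFP-negative and mCherry-positive were sorted by FACS 4–5 days after electroporation and then grown for about two weeks. Tiled amplicons from gDNA were sequenced on NextSeq at ~2 million reads per tile. The functional score is a wild-type-corrected log ratio of post- to pre-selection counts, rescaled to the synonymous and nonsense medians, merged across codons and replicate transfections, and given a bootstrapped error.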
With MEVVDPQQLGMFTEGELMSVGMDTFIHRIDSTEVIYQPRRKRAKLIGKYLMGDLLGEGSYGKVKEVLDSETLCRRAVKILKKKKLRRIPNGEANVKKEIQLLRRLRHKNVIQLVDVLYNEEKQKMYMVMEYCVCGMQEMLDSVPEKRFPKCQAHGYFCQLIDGLEYLHSQGIVHKDIKPGNLLLTTGGTLKISDLGVAEALHPFAADDTCRTSQGSPAFQPPEIANGLDTFSGFKVDIWSAGVTLYNITTGLYPFEGDNIYKLFENIGKGSYAIPGDCGPPLSDLLKGMLEYEPAKRFSIRQIRQHSWFRKKHPPAEAPVPIPPSPDTKDRWRSMTVVPYLEDLHGADEDEDLFDIEDDIIYTQDFTVPGQVPEEEASHNGQRRGLPKAVCMNGTEAAQLSTKSRAEGRAPNPARKACSASSKIRRLSACKQQ [V150K], the STK11 functional score was found to be 1.36 ± 0.28.
On to MEVVDPQQLGMFTEGELMSVGMDTFIHRIDSTEVIYQPRRKRAKLIGKYLMGDLLGEGSYGKVKEVLDSETLCRRAVKILKKKKLRRIPNGEANVKKEIQLLRRLRHKNVIQLVDVLYNEEKQKMYMVMEYCVCGMQEMLDSVPEKRFPGCQAHGYFCQLIDGLEYLHSQGIVHKDIKPGNLLLTTGGTLKISDLGVAEALHPFAADDTCRTSQGSPAFQPPEIANGLDTFSGFKVDIWSAGVTLYNITTGLYPFEGDNIYKLFENIGKGSYAIPGDCGPPLSDLLKGMLEYEPAKRFSIRQIRQHSWFRKKHPPAEAPVPIPPSPDTKDRWRSMTVVPYLEDLHGADEDEDLFDIEDDIIYTQDFTVPGQVPEEEASHNGQRRGLPKAVCMNGTEAAQLSTKSRAEGRAPNPARKACSASSKIRRLSACKQQ [V150G], for which the STK11 functional score is 0.594 ± 0.14.
For MEVVDPQQLGMFTEGELMSVGMDTFIHRIDSTEVIYQPRRKRAKLIGKYLMGDLLGEGSYGKVKEVLDSETLCRRAVKILKKKKLRRIPNGEANVKKEIQLLRRLRHKNVIQLVDVLYNEEKQKMYMVMEYCVCGMQEMLDSVPEKRFPLCQAHGYFCQLIDGLEYLHSQGIVHKDIKPGNLLLTTGGTLKISDLGVAEALHPFAADDTCRTSQGSPAFQPPEIANGLDTFSGFKVDIWSAGVTLYNITTGLYPFEGDNIYKLFENIGKGSYAIPGDCGPPLSDLLKGMLEYEPAKRFSIRQIRQHSWFRKKHPPAEAPVPIPPSPDTKDRWRSMTVVPYLEDLHGADEDEDLFDIEDDIIYTQDFTVPGQVPEEEASHNGQRRGLPKAVCMNGTEAAQLSTKSRAEGRAPNPARKACSASSKIRRLSACKQQ [V150L], the STK11 functional score stood at 0.401 ± 0.14.
With MEVVDPQQLGMFTEGELMSVGMDTFIHRIDSTEVIYQPRRKRAKLIGKYLMGDLLGEGSYGKVKEVLDSETLCRRAVKILKKKKLRRIPNGEANVKKEIQLLRRLRHKNVIQLVDVLYNEEKQKMYMVMEYCVCGMQEMLDSVPEKRFPACQAHGYFCQLIDGLEYLHSQGIVHKDIKPGNLLLTTGGTLKISDLGVAEALHPFAADDTCRTSQGSPAFQPPEIANGLDTFSGFKVDIWSAGVTLYNITTGLYPFEGDNIYKLFENIGKGSYAIPGDCGPPLSDLLKGMLEYEPAKRFSIRQIRQHSWFRKKHPPAEAPVPIPPSPDTKDRWRSMTVVPYLEDLHGADEDEDLFDIEDDIIYTQDFTVPGQVPEEEASHNGQRRGLPKAVCMNGTEAAQLSTKSRAEGRAPNPARKACSASSKIRRLSACKQQ [V150A], the STK11 functional score was found to be 0.104 ± 0.15.
Take MEVVDPQQLGMFTEGELMSVGMDTFIHRIDSTEVIYQPRRKRAKLIGKYLMGDLLGEGSYGKVKEVLDSETLCRRAVKILKKKKLRRIPNGEANVKKEIQLLRRLRHKNVIQLVDVLYNEEKQKMYMVMEYCVCGMQEMLDSVPEKRFPHCQAHGYFCQLIDGLEYLHSQGIVHKDIKPGNLLLTTGGTLKISDLGVAEALHPFAADDTCRTSQGSPAFQPPEIANGLDTFSGFKVDIWSAGVTLYNITTGLYPFEGDNIYKLFENIGKGSYAIPGDCGPPLSDLLKGMLEYEPAKRFSIRQIRQHSWFRKKHPPAEAPVPIPPSPDTKDRWRSMTVVPYLEDLHGADEDEDLFDIEDDIIYTQDFTVPGQVPEEEASHNGQRRGLPKAVCMNGTEAAQLSTKSRAEGRAPNPARKACSASSKIRRLSACKQQ [V150H]: the STK11 functional score came out at 1.26 ± 0.38.
The value for MEVVDPQQLGMFTEGELMSVGMDTFIHRIDSTEVIYQPRRKRAKLIGKYLMGDLLGEGSYGKVKEVLDSETLCRRAVKILKKKKLRRIPNGEANVKKEIQLLRRLRHKNVIQLVDVLYNEEKQKMYMVMEYCVCGMQEMLDSVPEKRFPCCQAHGYFCQLIDGLEYLHSQGIVHKDIKPGNLLLTTGGTLKISDLGVAEALHPFAADDTCRTSQGSPAFQPPEIANGLDTFSGFKVDIWSAGVTLYNITTGLYPFEGDNIYKLFENIGKGSYAIPGDCGPPLSDLLKGMLEYEPAKRFSIRQIRQHSWFRKKHPPAEAPVPIPPSPDTKDRWRSMTVVPYLEDLHGADEDEDLFDIEDDIIYTQDFTVPGQVPEEEASHNGQRRGLPKAVCMNGTEAAQLSTKSRAEGRAPNPARKACSASSKIRRLSACKQQ [V150C] was 0.762 ± 0.23; that for MEVVDPQQLGMFTEGELMSVGMDTFIHRIDSTEVIYQPRRKRAKLIGKYLMGDLLGEGSYGKVKEVLDSETLCRRAVKILKKKKLRRIPNGEANVKKEIQLLRRLRHKNVIQLVDVLYNEEKQKMYMVMEYCVCGMQEMLDSVPEKRFPPCQAHGYFCQLIDGLEYLHSQGIVHKDIKPGNLLLTTGGTLKISDLGVAEALHPFAADDTCRTSQGSPAFQPPEIANGLDTFSGFKVDIWSAGVTLYNITTGLYPFEGDNIYKLFENIGKGSYAIPGDCGPPLSDLLKGMLEYEPAKRFSIRQIRQHSWFRKKHPPAEAPVPIPPSPDTKDRWRSMTVVPYLEDLHGADEDEDLFDIEDDIIYTQDFTVPGQVPEEEASHNGQRRGLPKAVCMNGTEAAQLSTKSRAEGRAPNPARKACSASSKIRRLSACKQQ [V150P] was 0.992 ± 0.14.
